According to the supplement of paper PMC10567573:

B1: FAM46C (parent)
chain: VRSRLEEAGIKVHDVRLNGSAAGH

Variants of: B1
Assay: protein stability index of a GFP-peptide fusion (GPS, HEK-293T) (PSI 1-6); higher = more stable
Details: c terminus: a fixed tail appended
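Further: lentivirally expressed fusions sorted by FACS into six bins by GFP to DsRed ratio, PSI derived from sequencing read proportions per bin multiplied by bin number.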

With G19T as the variant, how does the protein stability index read?
The protein stability index was 1.74.

Which protein stability index does the source give for V1F here?
The protein stability index was 2.56.

For E7R, which protein stability index is on record?
Its protein stability index is 3.32.

For A8D, which protein stability index is on record?
The protein stability index was 4.49.

With L17N as the variant, how does the protein stability index read?
The protein stability index was 3.75.

With R4Q as the variant, how does the protein stability index read?
Its protein stability index is 3.52.

For S20G, which protein stability index is on record?
Its protein stability index is 1.94.

Which protein stability index does the source give for L5V here?
The protein stability index was 3.7.

With R2G as the variant, how does the protein stability index read?
The protein stability index was 3.36.

For I10C, which protein stability index is on record?
Its protein stability index is 2.89.

Which protein stability index does the source give for V12T here?
Its protein stability index is 2.29.

Which protein stability index does the source give for G19H here?
Its protein stability index is 2.54.

For G19V, which protein stability index is on record?
Its protein stability index is 1.79.

With V15Y as the variant, how does the protein stability index read?
The protein stability index was 2.61.

Which protein stability index does the source give for G9K here?
Its protein stability index is 2.75.

Which protein stability index does the source give for R2Q here?
The protein stability index was 2.58.

Which protein stability index does the source give for G9N here?
The protein stability index was 3.91.

For N18L, which protein stability index is on record?
Its protein stability index is 1.16.

With A22C as the variant, how does the protein stability index read?
Its protein stability index is 1.65.

With S3M as the variant, how does the protein stability index read?
Its protein stability index is 1.53.

For N18E, which protein stability index is on record?
The protein stability index was 1.53.

With V15I as the variant, how does the protein stability index read?
Its protein stability index is 2.06.

For G23V, which protein stability index is on record?
The protein stability index was 1.82.

For L17G, which protein stability index is on record?
The protein stability index was 4.55.

For H13D, which protein stability index is on record?
Its protein stability index is 1.02.

With A8N as the variant, how does the protein stability index read?
Its protein stability index is 3.17.

For A22P, which protein stability index is on record?
Its protein stability index is 2.37.

Which protein stability index does the source give for V1R here?
Its protein stability index is 4.11.

With L5Y as the variant, how does the protein stability index read?
The protein stability index was 3.04.

For V1T, which protein stability index is on record?
The protein stability index was 4.25.

For V1Q, which protein stability index is on record?
Its protein stability index is 4.59.

With V12I as the variant, how does the protein stability index read?
Its protein stability index is 2.67.

With H24S as the variant, how does the protein stability index read?
The protein stability index was 3.07.

Which protein stability index does the source give for G9V here?
Its protein stability index is 2.88.

For G9W, which protein stability index is on record?
Its protein stability index is 2.81.

For V12P, which protein stability index is on record?
The protein stability index was 4.06.

Which protein stability index does the source give for G23S here?
The protein stability index was 2.6.

With D14L as the variant, how does the protein stability index read?
Its protein stability index is 2.43.

Which protein stability index does the source give for K11M here?
The protein stability index was 2.01.

For K11Q, which protein stability index is on record?
The protein stability index was 2.74.

Which protein stability index does the source give for R4I here?
The protein stability index was 2.53.

With A8P as the variant, how does the protein stability index read?
Its protein stability index is 3.88.

For I10Y, which protein stability index is on record?
Its protein stability index is 1.75.

With A21I as the variant, how does the protein stability index read?
Its protein stability index is 2.44.

With A21Y as the variant, how does the protein stability index read?
The protein stability index was 1.56.

Which protein stability index does the source give for H13A here?
The protein stability index was 2.98.

Which protein stability index does the source give for E6P here?
Its protein stability index is 3.71.

Which protein stability index does the source give for V12N here?
Its protein stability index is 4.04.

Which protein stability index does the source give for G9A here?
The protein stability index was 2.76.

Which protein stability index does the source give for A22E here?
The protein stability index was 2.12.

With R4G as the variant, how does the protein stability index read?
Its protein stability index is 3.25.

With D14T as the variant, how does the protein stability index read?
The protein stability index was 2.8.

Which protein stability index does the source give for G9Q here?
Its protein stability index is 3.88.

With L5Q as the variant, how does the protein stability index read?
Its protein stability index is 5.12.

For D14H, which protein stability index is on record?
The protein stability index was 3.04.

For V12H, which protein stability index is on record?
The protein stability index was 3.6.

With D14Y as the variant, how does the protein stability index read?
The protein stability index was 2.74.

With E7G as the variant, how does the protein stability index read?
The protein stability index was 3.06.

Which protein stability index does the source give for D14E here?
Its protein stability index is 2.4.

With A8M as the variant, how does the protein stability index read?
Its protein stability index is 2.58.

For N18W, which protein stability index is on record?
Its protein stability index is 2.13.

Which protein stability index does the source give for S20V here?
The protein stability index was 2.61.

Which protein stability index does the source give for R2F here?
The protein stability index was 2.04.

With G19L as the variant, how does the protein stability index read?
Its protein stability index is 2.16.

With L17S as the variant, how does the protein stability index read?
The protein stability index was 4.33.

Which protein stability index does the source give for A21Q here?
The protein stability index was 1.72.

Which protein stability index does the source give for S3H here?
Its protein stability index is 3.76.

With R2S as the variant, how does the protein stability index read?
The protein stability index was 4.37.

Which protein stability index does the source give for N18V here?
Its protein stability index is 2.7.

With N18G as the variant, how does the protein stability index read?
Its protein stability index is 2.02.

Which protein stability index does the source give for E7C here?
The protein stability index was 1.47.

With L17E as the variant, how does the protein stability index read?
The protein stability index was 4.2.

Which protein stability index does the source give for I10M here?
Its protein stability index is 3.78.

Which protein stability index does the source give for R2L here?
The protein stability index was 2.34.

Which protein stability index does the source give for R16S here?
Its protein stability index is 2.68.

For E6Q, which protein stability index is on record?
Its protein stability index is 3.22.

With S3K as the variant, how does the protein stability index read?
Its protein stability index is 1.37.

For V12E, which protein stability index is on record?
Its protein stability index is 4.73.

Which protein stability index does the source give for G23I here?
The protein stability index was 1.6.

With L5A as the variant, how does the protein stability index read?
Its protein stability index is 4.34.

Which protein stability index does the source give for E6F here?
Its protein stability index is 2.46.

Which protein stability index does the source give for K11H here?
The protein stability index was 1.99.

For V15D, which protein stability index is on record?
The protein stability index was 5.04.

With E7Y as the variant, how does the protein stability index read?
Its protein stability index is 2.8.

Which protein stability index does the source give for I10A here?
The protein stability index was 3.63.

For G23W, which protein stability index is on record?
Its protein stability index is 2.18.

Which protein stability index does the source give for G19Q here?
The protein stability index was 2.74.

For A22R, which protein stability index is on record?
The protein stability index was 2.17.

Which protein stability index does the source give for R2I here?
Its protein stability index is 2.15.

For K11E, which protein stability index is on record?
The protein stability index was 2.89.

For R16E, which protein stability index is on record?
The protein stability index was 4.63.

For L17A, which protein stability index is on record?
The protein stability index was 3.15.

With A8F as the variant, how does the protein stability index read?
Its protein stability index is 1.85.

With K11L as the variant, how does the protein stability index read?
Its protein stability index is 3.83.

For N18S, which protein stability index is on record?
The protein stability index was 4.1.

For R4N, which protein stability index is on record?
The protein stability index was 2.47.

For G19D, which protein stability index is on record?
Its protein stability index is 2.26.

For G19R, which protein stability index is on record?
Its protein stability index is 2.22.

For S3W, which protein stability index is on record?
Its protein stability index is 2.05.

For R16V, which protein stability index is on record?
The protein stability index was 2.63.

For E7K, which protein stability index is on record?
The protein stability index was 2.45.

Which protein stability index does the source give for V1N here?
The protein stability index was 3.5.

With V1K as the variant, how does the protein stability index read?
The protein stability index was 3.62.

Which protein stability index does the source give for H24I here?
Its protein stability index is 2.01.

For G9M, which protein stability index is on record?
The protein stability index was 3.15.

With G23K as the variant, how does the protein stability index read?
Its protein stability index is 2.25.

For S3L, which protein stability index is on record?
Its protein stability index is 1.28.

With V1E as the variant, how does the protein stability index read?
Its protein stability index is 3.44.

With I10T as the variant, how does the protein stability index read?
The protein stability index was 3.78.

With A8W as the variant, how does the protein stability index read?
Its protein stability index is 2.19.

Which protein stability index does the source give for R16Q here?
The protein stability index was 2.68.

Which protein stability index does the source give for N18T here?
Its protein stability index is 1.87.

Which protein stability index does the source give for A21E here?
The protein stability index was 2.53.

For R2T, which protein stability index is on record?
The protein stability index was 3.82.

For G23Q, which protein stability index is on record?
The protein stability index was 1.2.

Which protein stability index does the source give for N18K here?
The protein stability index was 3.56.

For S3F, which protein stability index is on record?
The protein stability index was 1.69.

With V15E as the variant, how does the protein stability index read?
Its protein stability index is 3.27.

Which protein stability index does the source give for H24M here?
The protein stability index was 2.15.

Which protein stability index does the source give for G19P here?
Its protein stability index is 1.55.

Which protein stability index does the source give for A8K here?
Its protein stability index is 3.38.

For R2P, which protein stability index is on record?
The protein stability index was 3.89.

With V15M as the variant, how does the protein stability index read?
Its protein stability index is 3.41.

Which protein stability index does the source give for L17D here?
Its protein stability index is 4.

With L5K as the variant, how does the protein stability index read?
Its protein stability index is 3.97.

For D14Q, which protein stability index is on record?
Its protein stability index is 2.56.

Which protein stability index does the source give for I10V here?
The protein stability index was 4.24.

Which protein stability index does the source give for I10R here?
Its protein stability index is 3.41.

For E6R, which protein stability index is on record?
The protein stability index was 2.59.

With V1P as the variant, how does the protein stability index read?
Its protein stability index is 4.38.

With S20N as the variant, how does the protein stability index read?
The protein stability index was 3.2.

With H24W as the variant, how does the protein stability index read?
Its protein stability index is 3.51.

With L17I as the variant, how does the protein stability index read?
Its protein stability index is 2.53.

With L5D as the variant, how does the protein stability index read?
The protein stability index was 4.35.

For K11W, which protein stability index is on record?
Its protein stability index is 2.69.

With V1D as the variant, how does the protein stability index read?
The protein stability index was 4.33.

Which protein stability index does the source give for A22G here?
The protein stability index was 2.86.

For E6M, which protein stability index is on record?
Its protein stability index is 1.71.

For R2M, which protein stability index is on record?
Its protein stability index is 2.33.

For G23D, which protein stability index is on record?
Its protein stability index is 2.44.

For K11I, which protein stability index is on record?
The protein stability index was 1.63.

Which protein stability index does the source give for L5W here?
The protein stability index was 3.49.

Which protein stability index does the source give for A21R here?
The protein stability index was 2.83.

For S20K, which protein stability index is on record?
Its protein stability index is 2.28.

With A22N as the variant, how does the protein stability index read?
Its protein stability index is 2.25.

Which protein stability index does the source give for R4F here?
Its protein stability index is 1.89.

For R16W, which protein stability index is on record?
The protein stability index was 1.66.

For A21G, which protein stability index is on record?
Its protein stability index is 3.12.

Which protein stability index does the source give for G23M here?
The protein stability index was 1.62.

For S20A, which protein stability index is on record?
The protein stability index was 2.61.

With H13M as the variant, how does the protein stability index read?
The protein stability index was 1.53.

Which protein stability index does the source give for V1Y here?
The protein stability index was 3.57.

Which protein stability index does the source give for E7P here?
Its protein stability index is 3.78.

Which protein stability index does the source give for E6G here?
Its protein stability index is 3.06.

For E7T, which protein stability index is on record?
Its protein stability index is 2.51.

For R2D, which protein stability index is on record?
Its protein stability index is 4.25.

With L5S as the variant, how does the protein stability index read?
Its protein stability index is 4.34.

Which protein stability index does the source give for G23F here?
The protein stability index was 2.94.

For V12Y, which protein stability index is on record?
Its protein stability index is 3.33.

Which protein stability index does the source give for G9S here?
Its protein stability index is 3.9.

With E7H as the variant, how does the protein stability index read?
Its protein stability index is 2.37.

For R2H, which protein stability index is on record?
Its protein stability index is 2.4.

With L5E as the variant, how does the protein stability index read?
Its protein stability index is 4.38.

Which protein stability index does the source give for V12M here?
The protein stability index was 3.25.

With H13F as the variant, how does the protein stability index read?
The protein stability index was 1.74.

Which protein stability index does the source give for G23Y here?
Its protein stability index is 2.18.

Which protein stability index does the source give for D14S here?
Its protein stability index is 2.64.
